Test: soluble on expression in E. coli; label from the status in PepcDB or PDB records

Sequence	soluble on expression in E. coli
VPTPKRPRGRPKGSKNKGAAKTRKT	soluble
MAKNSRSKTQFENMKYEIAKEVGVNLKQGYNGDLTAREAGKIGGNIVKKVFQSYTGNSYPSERLGDTSR	not soluble
MMKKRASHHLVICTLIDTLRFRLSSRKAISMNAFNKLVKHSKKISNFNHLSSIVGWDQAAVMPSGGAEARSQAMAELSVHIHGLMTQPQLADWFAEAESETLNIEQQATLREMKRQWQQATVLPEALVEAQSLAGSKCEHAWRSQRKNNDWTGFEKNWAEVVKLSQEEAQIRAEATGKTPYDAMLELYEPGTTTEQLNRVFSDVKTWLPSLIDVVIEKQSSESFIAPKGHYPAESQKALGLDVMKLLQFDFNHGRLDESVHPFCGGVPSDVRITTRYNESEFVQSLMGIVHETGHARYEQGLPKHLAGTPAGEARSMGIHESQSLFFEMQVGRSPAFIAHLAELAGKHFSAMNDPVFRVENIQKLYTRVQKDFIRVDADELTYPAHVILRFEIERDLMNGKIKHTDVPELWDQKMQAYLGLSTKGNDQNGCMQDIHWTDGSFGYFPSYTLGAMYAAQFMAAMKKTVDVDGAIRRGDLSPIFTWLSENIWSKGSLFSTDELVKQATGETLNPEHFKAHLSQRYLK	not soluble
MSLAQTLGYIYRKRMIDSIEEFSRQIETTYQINKFWDNFEQIREVQNTKIDKVKEKQQKLMERLSSLYDKVEGQKEMGSMNNSNISAAESEWFAEIKRSVIEFNSYVRKASTNHQELEFIKEQQAQIANQKPDISSENGKEWNDLQQLLREGHHHHHH	soluble
MNGGEKLESIPIDLIIEIHSRLPAESVARFRCVSKLWGSMFRRPYFTELFLTRSRARPRLLFVLQHNRKWSFSVFSSPQNQNIYEKPSFVVADFHMKFSVSTFPDFHSCSGLIHFSMMKGAYTVPVVCNPRTGQYAVLPKLTRTRYENSYSFVGYDPIEKQIKVLFMSDPDSGDDHRILTLGTTEKMLGRKIECSLTHNILSNEGVCINGVLYYKASRIVESSSDDDTSDDDDDDHERSDVIVCFDFRCEKFEFIVICFYGQLINSVQLSLKQKSHQKLDLII	soluble
MSLVPARPNRPEADREALWKIVHDRCEFGYRRTGAYAPCTFVDEQSGTALYKADFDPYQFLLIPLARITGIEDPALRESAGRNYLYDAWAARFLVTARLNNSLPESDVVLTINPKNARTQDQLHIHISCSSPTTSAALRNVDTSEYVGWKQLPIDLGGRRFQGLAVDTKAFESRNLFRDIYLKVTADGKKMENASIAVANVAQDQFLLLLAEGTEDQPVAAETLQDHDCSITKSEGHHHHHH	soluble
QGFSQEKYAHNALNRRGFIELKSQARGQISTGGQVLAESYQDEEGFYQRRYVTNPAIYGPIEGYLSDIYGASGMESNLNGVLSGTDSSVSVRRWTDELLGRKHSGANVELTLLPQVQEVAYNQMANAGYEGAVVAIKPSTGEILAMASTPSYDPSAIVNPDTAEQTWAALNADPGNPLLNHATQETLPPGSTFK	not soluble
MNEFTAVKELSEKLLEDYKTESSFFFASPTRTILAEGEFTTVKHHEIESFPELVQAVLRNAKQAGNPNPIVVGALPFDRRKEVQLIVPEYSRISERLQLDPTNHLEINRNLTFEMTPVPDHEVYMKGVKQGIEKIKDGDLKKIVLSRSLDVKSSGKIDKQKLLRELAEHNKHGYTFAVNLPKDENENSKTLIGASPELLVSRHGMQVISNPLAGSRPRSDDPVEDKRRAEELLSSPKDLHEHAVVVEAVAAALRPYCHTLYVPEKPSVIHSEAMWHLSTEVKGELKNPNTSSLELAIALHPTPAVCGTPMEEAREAIQKIEPFDREFFTGMLGWSDLNGDGEWIVTIRCAEVQENTLRLYAGAGVVAESKPEDELAETSAKFQTMLKALGLNDSSLNEK	not soluble
MSLIVTAYTQEGIVIGADSCITTNFTQEGKELYKHSHCGNKLFLLNKKIGISTCGDAIINGILLSSLIDQYIWSKKEENITLLQVEIDLKNIVNNQAKGKEYYVIFHICGYENGKRYVSKFDNNDKESHIKDVSERDGCIYDGQVDIVDLFSQDVAYRGTDGLYYDINIERCRYNELSLQETIEYVYFLISTTIQHMRFTYKKDNVGFPIDILVIMPNESLWLQKKELHIPGNY	not soluble
MSLTMVQVTLEVNGRQVAHEAPPRMHLGDFLRDQARLTGTHLGCEHGVCGACTVLVDGQPVRSCITYAVACEGRQVTTIEGYDGDPVMARLRAAFTKYHALQCGYCTPGMLTTSRDIVLRLPDADEARVRVELSGNLCRCTGYMGIVGAVMSVLRDLREQPDAAVQALRAAAADGRLPAPRGEQPIAFQPFTPSAPSGKGNQIVDAFTVPFPAAEVWAFMVDLPAVAACLPGAVIEETDGQRVKGKIAIKFGPMAAAFNGAARLERDEAAMRAVFRGAGQDSLSQSRATGDIAYQVEAVSENETRVKVDLQYALQGPLAQFSRSGLVQDFVRRMIADFGKNVTARLREGHHHHHH	soluble
MSLNAPRIIGVIVPDIVTHFFASILNGIENMAIDNGYFVIITTSHESFEHEKRNIENLVNMRVEGIIACLSQETTDFSHFAALKEINMPLILFDRVCLTDQFSSVIADGAQSAQMATQHLLDNGSKRVAFIGGANHLDIVKRRKHGYLEALRDNRIPIEKELVVCRKIDYEEGQIATETLLSLPQPPDAILAMNDTLAFAAMEVIKRHGLRIPDDIAIIGYTDEQHANYVEPKLSAVSHQTYKMGETACQLLIDQIKGDRTVKQVVIPTHLQIRESSIEGHHHHHH	soluble
SLWASADAIQQKLADLEKRSGGRLGVALINTADDSQTLYRGDERFAMCSTGKVMAAAAVLKQSESNPEVVNKRLEIKKSDLVVWSPITEKHLQSGMTLAELSAAALQYSDNTAMNKMISYLGGPEKVTAFAQSIGDVTFRLDRTEPALNSAIPGDKRDTTTPLAMAESLRKLTLGNALGEQQRAQLVTWLKGNTTGGQSIRAGLPASWAVGDKTGAGDYGTTNDIAVIWPENHAPLVLVTYFTQPQQDAKSRKEVLAAAAKIVTEGL	soluble
MKRAPFLCKQSPDRTLEVVILAGSLAWETSRVWRKDPDREDDVPPMVLGPNELADLSNLTIIRPDTLYVRVLRTGDISEEDLLKIAVKLAHAGVQMARLMSPDGELLENWTGQLERLRQERPSDILPDHFRLDEEALWFDKLTERRDGESDVQPQRICSPLRVTAITCDSHDGSYGRLLEWHTTTGQLRRWAMPMAMLSGNGEELRRILLENGLTNISTRPALRSLLCEYISRSLPGRRVTCVEKTGWHNGVYVLPDEVIGPDGDNVILQGSHYLTGGFAQAGTLAEWQEQVAALCAGNSRLVFAVCCALAAPLLRLTGTGGGGFHLRGESTDGKTTVMKVAASVCGGTDYWHSWRATGNALEGIASRHNDALLPLDELREVDPREAGMIAYMLANGQGKGRARTDGEVRNRRHWTLLLFSTGELSLAEHTERAGERIYAGMDVRMVQIPSDTGQHGAFEQLHGFASGQQFADTLCDRVARFHGTAFRAWLAFLTHDQDASTTLARELLRRYQNALMPDNAGNQVQRIVARFALLAAAGEIATLHGITGWQKGTAYEAVQICLHAWLNERGHIANQEDEGVLAQIKRFITAHQYSRFASWDGPDRPLNMAGFRRVEKDPLTGEEHTLFFILPEGWREICRGFSPARAARLCQEAECLQPGSDGKYQSQVRLPEIGKTRVYRLTSRILSILEHHHHHH	soluble
MSEGITDIEESQIQTNYDKVVYKFDDMELDENLLRGVFGYGFEEPSAIQQRAIMPIIEGHDVLAQAQSGTGKTGTFSIAALQRIDTSVKAPQALMLAPTRELALQIQKVVMALAFHMDIKVHACIGGTSFVEDAEGLRDAQIVVGTPGRVFDNIQRRRFRTDKIKMFILDEADEMLSSGFKEQIYQIFTLLPPTTQVVLLSATMPNDVLEVTTKFMRNPVRILVKKDELTLEGIKQFYVNVEEEEYKYECLTDLYDSISVTQAVIFCNTRRKVEELTTKLRNDKFTVSAIYSDLPQQERDTIMKEFRSGSSRILISTDLLARGIDVQQVSLVINYDLPANKENYIHRIGRGGRFGRKGVAINFVTNEDVGAMRELEKFYSTQIEELPSDIATLLN	soluble
VKLVIDLLGAQTRSHLRGIGRYTRELTKALLRQAGEAHAIHLVLHAPLEQASDALIAEFGALLPRARIHLLRLPRHTSEHLTGNTWRHHAASRLSRYGLTCLDADVVWHSSVFEGYDEDGVLPDAPLFHTNRVATLYDLIPLHDPEVFLPGSLPKAWYERRSAFLSSCDLLFCLSEWTAQEAVQRLHLDPERLVVIGGGVDSNFRPLVFDAQQRGNLLARFSITRPYVLYNGGLDQRKNVPALLRAFALLPMAIRQRHQLVVLGDDREVHRPMMALCRQLGLDQQEVVFTGRVNDSDLVALYGLCALFVFPSRLEGFGLPVLEAMACGAPTLCSDAASLPEVAGRQDILFPPEDHVALSARMSQVLDDPQWLQSLRDYGLRRATAFTWDRVAQRALDALTRLQVRSSEMKSQRVSEVSPATHTETAAPEMLPITEIQLVTDLAALPGDASRDDLAQAAFSICSMRVAPQAPQWLVDVSQIAKTDIGTGTSRVTRSILREWLSTPPPGVCIVPVYLREGQYHYARSFTAQVLGLVSETPQEGIVMVYPGDVFVGLDWAPEAINAARARLQDWRRVGVATCFVVHDLLPMTLPDCFHPYSRNLFEQWLRTVAHLADAIACISATTAEVLSRWLQDTTVDYQFGIPPQVKHFPLGVSFPEVSTAQEAIREELRTALVMRPTLLIVGTLEPRKGHVHALRICEQLWEQGEDVNLVVVGQRGWSEQALVMRLTRHPEVGRRLFWLSDAADAELSALYVHATALLALSEGEGYGLPLLEAAHFRLPILARPLPVFLEIMADYPHYLDGTAPDTWSATVAQWLHASDRPISRPVPIASWKESAQQLADIVNDCRFLLDSKKLSAPLK	soluble
MSHGSGLVRTTCSSGGALGPAQPSEGLLDRVYPLTHGALFKVAQMGYRLLVAGFQNCRGIDIY	not soluble
MSQSRDLQGGKAFGLLKAQQEERLEGINKQFLDDPKYSNDEDLPSKLEAFKVKYMEFDLNGNGDIDIMSLKRMLEKLGVPKTHLELKRLIREVSSGSEETFSYSDFLRMMLGKRSAILRMILMYEEKNKEHKRPTGPPAKKAISELP	soluble
MSLPREKVVRVWDEREVVYSPKRWRILWEKREKALKIMELLKDFDPHVYGSVARGDVRRDSDIDIVIPYRVPSYLIELALGDLIQRRRIVMATPWHLIKGHIEIDEETTVTFFLVDPTDRELEFYKWGGMLDLWGVKTKQRVPGVNKKLILIIPTDKGHIEREVVGREAEVAKILGVSVDIVEERVKVLTRRDRIGRTGIYLDEEVPDWKSFEEFLKELADRDPNIRRRVRESLEGHHHHHH	not soluble
MEDRFTTRRRANLESIAQRLLEISQKTEEDEANEVGEDDQHPKNVLNILNTITKEGLEKIVNDIIANGTIIDEMFVVLQRFSEKPALSNPIQRPFYSNLDDNVPSFLRNLQKWRLRDELTKSIEQEEKLKAELKHANDQINMIVEHNKLELDALNKINLEAKAQEKIQEEIIQRCMKRVEDLESILETKEQKLNDFEEREYETTCQLTMKHSLELAEKDQKILELEKYIRNNENQDVVALTRELERLRSQATKDEPSTDDSTIKISMAQHRLELEAQAKMIKTLEAELSKRQEINAEQIERLIEERNSEIKNLIREQSKEIHEKNVKIAKFEIKDYANIFRQISKNIFTNKEAPGPSGRPKKRRMVDDPEDLFHNYEDLDDAKFLELAKIIETTKKDVTTLINTEGPSEDVSGNFMEAKKIHGALAQLKEKDQTVSDLKQKTNQNNKRVDQEDPIEEYEYDYNDESDGESVKSETSSWDQIDDIF	not soluble
DKIAIIGSRRMSVYTKNCVFSLASMLKNAHLCVVSGGALGVDITASMAAMPNTIGIFANGLDQIYPRTNEKIIKQIYENALALSEYEDDYLPKNYDFLLRNRLVIALSKAVVVAQADIKSGSMQSAKLALELNKPLYVLPQRLGESTATNLLLKENKAKLICDFKEFVSEFASID	not soluble
